Experimental data as given in patent US8734776B2 (ZymoGenetics, Inc., priority 2003, dated 2014).
Where two headings read alike, the source gives them in different places.

Columns and labels:
rhino virus [1] = assay type: cell-based
EMCV = EMCV antiviral dye-uptake assay in HepG2 cells; assay type: cell-based, human; conditions: dye-uptake OD570
west nile virus [2] = assay type: cell-based; conditions: Vero cells
polio virus = assay type: cell-based; conditions: Vero cells
vaccinia virus = assay type: cell-based; conditions: Vero cells
[3] = system: encephelomyocarditis virus; assay: Antiviral assay: cytopathic effect in HeLa cells; assay type: cell-based, human
influenza virus [4] = assay type: cell-based; conditions: Influenza (type A [H3N2])
[5] = system: encephelomyocarditis virus; assay: Antiviral assay: cytopathic effect in L929 cells; assay type: cell-based, mouse
rhino virus [6] = assay type: cell-based; remark: listed apart in the source
[7] = system: human marrow mononuclear cells; assay: Bone marrow expansion assay (Alamar Blue); assay type: cell-based
[8] = system: respiratory syncytial virus; assay type: cell-based; conditions: MA-104 cells
influenza virus [9] = assay type: cell-based; conditions: Influenza (type A [H3N2]); remark: listed apart in the source
adenovirus [10] = assay type: cell-based; conditions: A549 cells
adenovirus [11] = assay type: cell-based; conditions: A549 cells; remark: listed apart in the source
coxsackie virus [12] = assay type: cell-based; conditions: Coxsackie B4 virus, KB cells
parainfluenza virus = assay type: cell-based; conditions: MA-104 cells
dengue virus [13] = assay type: cell-based; conditions: Vero cells
BVDV = BVDV CPE inhibition assay in MDBK cells; assay type: cell-based; conditions: MDBK bovine kidney cells
Description: IFNα and RIBAVIRIN® were used as positive controls. Test sample were added at the time of viral infection.

pichinde virus [14] = assay type: cell-based
west nile virus [15] = assay type: cell-based; conditions: Vero cells; remark: listed apart in the source
[16] = system: respiratory syncytial virus; assay type: cell-based; conditions: MA-104 cells; remark: listed apart in the source
adenoviral vector, AdGFP = assay: Adenoviral (AdGFP) liver pathology in mice; assay type: in vivo, mouse; conditions: C57Bl/6 mice
Description: When injected intravenously, these viruses primarily target the liver for gene expression. The adenoviruses are replication deficient, but cause liver damage due to inflammatory cell infiltrate that can be monitored by measurement of serum levels of liver enzymes like AST and ALT, or by direct examination of liver pathology.
C57B116 mice were given once daily intraperitoneal injections of 50 μg mouse IL-28 (zcyto24 as shown in SEQ ID NO:8) or metIL-29C172S—PEG for 3 days. Control animals were injected with PBS. One hour following the 3rd dose, mice were given a single bolus intravenous tail vein injection of the adenoviral vector, AdGFP (1×10^9 plaque-forming units (pfu)). Following this, every other day mice were given an additional dose of PBS, mouse IL-28 or metIL-29C172S—PEG for 4 more doses (total of 7 doses). One hour following the final dose of PBS, mouse IL-28 or metIL-29C172S—PEG mice were terminally bleed and sacrificed. The serum and liver tissue were analyzed. Serum was analyzed for AST and ALT liver enzymes. Liver was isolated and analyzed for GFP expression and histology. For histology, liver specimens were fixed in formalin and then embedded in paraffin followed by H&E staining. Sections of liver that had been blinded to treat were examined with a light microscope. Changes were noted and scored on a scale designed to measure liver pathology and inflammation.

pichinde virus [17] = assay type: cell-based; remark: listed apart in the source
coxsackie virus [18] = assay type: cell-based; conditions: Coxsackie B4 virus, KB cells; remark: listed apart in the source
dengue virus [19] = assay type: cell-based; conditions: Vero cells; remark: listed apart in the source
IL-28RA mRNA = assay: Semi-quantitative RT-PCR of IL-28RA, IFNAR2 and CRF2-4 mRNA; assay type: cell-based, human; conditions: HepG2 cells + cytokine
Description: In order to further examine the mRNA distribution for IL-28RA, semi-quantitative RT-PCR was performed using the SDS 7900HT system (Applied Biosystems, CA). One-step RT-PCR was performed using 100 ng total RNA for each sample and gene-specific primers. A standard curve was generated for each primer set using Bjab RNA and all sample values were normalized to HPRT. The normalized values for IFNAR2 and CRF2-4 are also shown.

[20] = system: venezuelan equine encephalitis virus; assay type: cell-based; conditions: Vero cells
[21] = Maden-Darby Canine Kidney cells

B1: IL-29: human IL-29, previously designated zcyto21, SEQ ID NO:4 (protein, listed as Homo sapiens)
chain: MAAAWTVVLVTLVLGLAVAGPVPTSKPTTTGKGCHIGRFKSLSPQELASFKKARDALEESLKLKNWSCSSPVFPGNWDLRLLQVRERPVALEAELALTLKVLEAAAGPALEDVLDQPLHTLHHILSQLQACIQPQPTAGPRPRGRLHHWLHRLQEAPKKESAGCLEASVTFNLFRLLTRDLKYVADGNLCLRTSTHPEST
modifications: SIGNAL (1)...(19)
- EC50 Visual (rhino virus [1]; Rhino 2, KB cells): >10 µg/mL
- IC50 Visual (rhino virus [1]; Rhino 2, KB cells): >10 µg/mL
- EC50 Visual (rhino virus [1]; Rhino 9, HeLa cells): >10 µg/mL
- IC50 Visual (rhino virus [1]; Rhino 9, HeLa cells): >10 µg/mL
- EC50 antiviral activity (EMCV): 0.0006 µg/mL
- EC50 NR (west nile virus [2]): 0.00025 µg/mL
- IC50 NR (west nile virus [2]): >10 µg/mL
- EC50 NR (polio virus): >10 µg/mL
- IC50 NR (polio virus): >10 µg/mL
- EC50 NR (vaccinia virus): >10 µg/mL
- IC50 NR (vaccinia virus): >10 µg/mL
- Percentage Cytopathic Effect ([3]; relative CM concentration .008X): 56%
- Percentage Cytopathic Effect ([3]; relative CM concentration .0156X): 31%
- Percentage Cytopathic Effect ([3]; relative CM concentration .0325X): 10%
- Percentage Cytopathic Effect ([3]; relative CM concentration .0625X): 10%
- Percentage Cytopathic Effect ([3]; relative CM concentration .125X): 5%
- Percentage Cytopathic Effect ([3]; relative CM concentration .25X): 0%
- Percentage Cytopathic Effect ([3]; relative CM concentration .5X): 0%
- EC50 NR (influenza virus [4]; [21]): >10 µg/mL
- IC50 NR (influenza virus [4]; [21]): >10 µg/mL
- EC50 NR (influenza virus [4]; Vero cells): 2 µg/mL
- IC50 NR (influenza virus [4]; Vero cells): >10 µg/mL
- Percentage Cytopathic Effect ([5]; relative CM conc. .008X): 87%
- Percentage Cytopathic Effect ([5]; relative CM conc. .0156X): 87%
- Percentage Cytopathic Effect ([5]; relative CM conc. .0325X): 87%
- Percentage Cytopathic Effect ([5]; relative CM conc. .0625X): 87%
- Percentage Cytopathic Effect ([5]; relative CM conc. .125X): 87%
- Percentage Cytopathic Effect ([5]; relative CM conc. .25X): 87%
- Percentage Cytopathic Effect ([5]; relative CM conc. .5X): 87%
- EC50 NR (rhino virus [6]; Rhino 2, KB cells): >10 µg/mL
- IC50 NR (rhino virus [6]; Rhino 2, KB cells): >10 µg/mL
- EC50 NR (rhino virus [6]; Rhino 9, HeLa cells): 0.982 µg/mL
- IC50 NR (rhino virus [6]; Rhino 9, HeLa cells): >10 µg/mL
- bone marrow cell expansion ([7]; in the presence of IL-2 or IL-15): small inhibition
- expansion of bone marrow cells ([7]; in the presence of IL-3, IL-4, IL-5, IL-7, IL-10, IL-12, IL-21 or no added cytokine): no significant effect
- EC50 Visual [8]: >10 µg/mL
- IC50 Visual [8]: >10 µg/mL
- EC50 Visual (influenza virus [9]; [21]): >10 µg/mL
- IC50 Visual (influenza virus [9]; [21]): >10 µg/mL
- EC50 Visual (influenza virus [9]; Vero cells): >10 µg/mL
- IC50 Visual (influenza virus [9]; Vero cells): >10 µg/mL
- EC50 NR (adenovirus [10]): >10 µg/mL
- IC50 NR (adenovirus [10]): >10 µg/mL
- EC50 Visual (adenovirus [11]): >10 µg/mL
- IC50 Visual (adenovirus [11]): >10 µg/mL
- EC50 NR (coxsackie virus [12]): >10 µg/mL
- IC50 NR (coxsackie virus [12]): >10 µg/mL
- EC50 NR (parainfluenza virus): >10 µg/mL
- IC50 NR (parainfluenza virus): >10 µg/mL
- EC50 Visual (dengue virus [13]): 0.032 µg/mL
- IC50 Visual (dengue virus [13]): >10 µg/mL
- IC50 inhibition of cell death induced by BVDV (BVDV): 0.19 µg/mL
- TC50 (BCBL-1 cells): > 10 µg/mL
- EC50 NR (pichinde virus [14]): >10 µg/mL
- IC50 NR (pichinde virus [14]): >10 µg/mL
- EC50 Visual (west nile virus [15]): 0.032 ng/mL
- IC50 Visual (west nile virus [15]): >10 µg/mL
- EC50 NR [16]: >10 µg/mL
- IC50 NR [16]: >10 µg/mL
- liver histology: liver and inflammation scores versus PBS-treated group (adenoviral vector, AdGFP): lower liver and inflammation scores
- liver histology: sinusoidal cells, mitotic figures, hepatocyte changes versus PBS treatment group (adenoviral vector, AdGFP): less proliferation of sinusoidal cells, fewer mitotic figures and fewer changes in the hepatocytes
- average serum AST (adenoviral vector, AdGFP; 50 μg i.p., 7 doses, n=8): 162 U/L
- serum ALT (adenoviral vector, AdGFP; 50 μg i.p., 7 doses, n=8): 184 U/L
- EC50 Visual (pichinde virus [17]): >10 µg/mL
- IC50 Visual (pichinde virus [17]): >10 µg/mL
- EC50 Visual (coxsackie virus [18]): >10 µg/mL
- IC50 Visual (coxsackie virus [18]): >10 µg/mL
- EC50 NR (dengue virus [19]): 0.05 µg/mL
- IC50 NR (dengue virus [19]): >10 µg/mL
- CRF2-4 mRNA normalized to HPRT (IL-28RA mRNA): 3.01
- IFNAR2 mRNA normalized to HPRT (IL-28RA mRNA): 2.53
- IL-28RA mRNA normalized to HPRT (IL-28RA mRNA): 2.28
- EC50 Visual [20]: 0.012 µg/mL
- IC50 Visual [20]: >10 µg/mL
